Data on seven molecules can be found in US20240000838A1 (SIMCERE INNOVATION, published 2024).

For the experiment, the target named is T1, CD5 on human T cells (autologous and allogeneic Pan-T cells) and on the T-ALL cell line CCRF-CEM (human, UniProt P06127 25-495).
T1 sequence (looked up): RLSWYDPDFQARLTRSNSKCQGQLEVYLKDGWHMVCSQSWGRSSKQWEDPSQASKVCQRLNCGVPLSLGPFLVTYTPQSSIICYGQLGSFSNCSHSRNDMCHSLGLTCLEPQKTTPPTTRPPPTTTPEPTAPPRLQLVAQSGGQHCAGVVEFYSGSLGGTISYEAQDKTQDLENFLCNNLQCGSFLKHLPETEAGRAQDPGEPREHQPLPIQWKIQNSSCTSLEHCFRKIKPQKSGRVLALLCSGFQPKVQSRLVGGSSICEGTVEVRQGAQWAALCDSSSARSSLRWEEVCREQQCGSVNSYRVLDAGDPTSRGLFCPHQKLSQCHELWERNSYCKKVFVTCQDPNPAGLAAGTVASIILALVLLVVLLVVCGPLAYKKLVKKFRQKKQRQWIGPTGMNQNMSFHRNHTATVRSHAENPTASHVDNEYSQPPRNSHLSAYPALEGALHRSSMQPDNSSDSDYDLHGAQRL
In words: cell-based or functional assay.

B1: CD5/CD33 Dual-CAR, construct S038 (other)
chain: DIQMTQSPSSLSASVGDRVTITCRASESVDNYGISFMNWFQQKPGKAPKLLIYAASNQGSGVPSRFSGSGSGTDFTLTISSLQPDDFATYYCQQSKEVPWTFGQGTKVEIKGGGGSNIQLVQSGPELKKPGETVKISCKASGYTFTNYGMNWVKQAPGKGLRWMGWINTHTGEPTYADDFKGRFAFSLETSASTAYLQINNLKNEDTATYFCTRRGYDWYFDVWGAGTTVTVSSGSTSGSGKPGSGEGSTKGDIKMTQSPSSMYASLGERVTITCKASQDINSYLSWFHHKPGKSPKTLIYRANRLVDGVPSRFSGSGSGQDYSLTISSLDYEDMGIYYCQQYDESPWTFGGGTKLEMKGGGGSQVQLVQSGAEVKKPGSSVKVSCKASGYTFTDYNMHWVRQAPGQGLEWIGYIYPYNGGTGYNQKFKSKATITADESTNTAYMELSSLRSEDTAVYYCARGRPAMDYWGQGTLVTVSSASTTTPAPRPPTPAPTIASQPLSLRPEACRPAAGGAVHTRGLDFACDIYIWAPLAGTCGVLLLSLVITLYCKRGRKKLLYIFKQPFMRPVQTTQEEDGCSCRFPEEEEGGCELRVKFSRSADAPAYKQGQNQLYNELNLGRREEYDVLDKRRGRDPEMGGKPRRKNPQEGLYNELQKDKMAEAYSEIGMKGERRRGKGHDGLYQGLSTATKDTYDALHMQALPPR
As to B1, the “elimination of CCRF-CEM cells after 18 hours (luciferase-based killing assay)” value (shortened to “elimination of CCRF-CEM cells”) was roughly 100%.

B2: CD5/CD33 Dual-CAR, construct S041 (other)
chain: EIQLVQSGGGLVKPGGSVRISCAASGYTFTNYGMNWVRQAPGKGLEWMGWINTHTGEPTYADSFKGRFTFSLDDSKNTAYLQINSLRAEDTAVYFCTRRGYDWYFDVWGQGTTVTVSSGGGGSDIQMTQSPSSLSASVGDRVTITCRASESVDNYGISFMNWFQQKPGKAPKLLIYAASNQGSGVPSRFSGSGSGTDFTLTISSLQPDDFATYYCQQSKEVPWTFGQGTKVEIKGSTSGSGKPGSGEGSTKGQVQLVQSGAEVKKPGSSVKVSCKASGYTFTDYNMHWVRQAPGQGLEWIGYIYPYNGGTGYNQKFKSKATITADESTNTAYMELSSLRSEDTAVYYCARGRPAMDYWGQGTLVTVSSGGGGSDIQMTQSPSSLSASVGDRVTITCRASQDINSYLSWFQQKPGKAPKTLIYRANRLESGVPSRFSGSGSGTDYTLTISSLQYEDFGIYYCQQYDESPWTFGGGTKLEIKASTTTPAPRPPTPAPTIASQPLSLRPEACRPAAGGAVHTRGLDFACDIYIWAPLAGTCGVLLLSLVITLYCKRGRKKLLYIFKQPFMRPVQTTQEEDGCSCRFPEEEEGGCELRVKFSRSADAPAYKQGQNQLYNELNLGRREEYDVLDKRRGRDPEMGGKPRRKNPQEGLYNELQKDKMAEAYSEIGMKGERRRGKGHDGLYQGLSTATKDTYDALHMQALPPR
Regarding B2, the “elimination of CCRF-CEM cells” value is roughly 100%.

B3: CD5/CD33 Dual-CAR, construct S042 (other)
chain: DIQMTQSPSSLSASVGDRVTITCRASESVDNYGISFMNWFQQKPGKAPKLLIYAASNQGSGVPSRFSGSGSGTDFTLTISSLQPDDFATYYCQQSKEVPWTFGQGTKVEIKGGGGSEIQLVQSGGGLVKPGGSVRISCAASGYTFTNYGMNWVRQAPGKGLEWMGWINTHTGEPTYADSFKGRFTFSLDDSKNTAYLQINSLRAEDTAVYFCTRRGYDWYFDVWGQGTTVTVSSGSTSGSGKPGSGEGSTKGDIQMTQSPSSLSASVGDRVTITCRASQDINSYLSWFQQKPGKAPKTLIYRANRLESGVPSRFSGSGSGTDYTLTISSLQYEDFGIYYCQQYDESPWTFGGGTKLEIKGGGGSQVQLVQSGAEVKKPGSSVKVSCKASGYTFTDYNMHWVRQAPGQGLEWIGYIYPYNGGTGYNQKFKSKATITADESTNTAYMELSSLRSEDTAVYYCARGRPAMDYWGQGTLVTVSSASTTTPAPRPPTPAPTIASQPLSLRPEACRPAAGGAVHTRGLDFACDIYIWAPLAGTCGVLLLSLVITLYCKRGRKKLLYIFKQPFMRPVQTTQEEDGCSCRFPEEEEGGCELRVKFSRSADAPAYKQGQNQLYNELNLGRREEYDVLDKRRGRDPEMGGKPRRKNPQEGLYNELQKDKMAEAYSEIGMKGERRRGKGHDGLYQGLSTATKDTYDALHMQALPPR
Turning to B3, the “elimination of CCRF-CEM cells” value was roughly 100%.

B4: CD5/CD33 Dual-CAR, construct S036 (other)
chain: DIKMTQSPSSMYASLGERVTITCKASQDINSYLSWFHHKPGKSPKTLIYRANRLVDGVPSRFSGSGSGQDYSLTISSLDYEDMGIYYCQQYDESPWTFGGGTKLEMKGGGGSQVQLVQSGAEVKKPGSSVKVSCKASGYTFTDYNMHWVRQAPGQGLEWIGYIYPYNGGTGYNQKFKSKATITADESTNTAYMELSSLRSEDTAVYYCARGRPAMDYWGQGTLVTVSSGSTSGSGKPGSGEGSTKGDIQMTQSPSSLSASVGDRVTITCRASESVDNYGISFMNWFQQKPGKAPKLLIYAASNQGSGVPSRFSGSGSGTDFTLTISSLQPDDFATYYCQQSKEVPWTFGQGTKVEIKGGGGSNIQLVQSGPELKKPGETVKISCKASGYTFTNYGMNWVKQAPGKGLRWMGWINTHTGEPTYADDFKGRFAFSLETSASTAYLQINNLKNEDTATYFCTRRGYDWYFDVWGAGTTVTVSSASTTTPAPRPPTPAPTIASQPLSLRPEACRPAAGGAVHTRGLDFACDIYIWAPLAGTCGVLLLSLVITLYCKRGRKKLLYIFKQPFMRPVQTTQEEDGCSCRFPEEEEGGCELRVKFSRSADAPAYKQGQNQLYNELNLGRREEYDVLDKRRGRDPEMGGKPRRKNPQEGLYNELQKDKMAEAYSEIGMKGERRRGKGHDGLYQGLSTATKDTYDALHMQALPPR
As for B4, the “elimination of CCRF-CEM cells” value is roughly 100%.

B5: CD5/CD33 Dual-CAR, construct S039 (other)
chain: QVQLVQSGAEVKKPGSSVKVSCKASGYTFTDYNMHWVRQAPGQGLEWIGYIYPYNGGTGYNQKFKSKATITADESTNTAYMELSSLRSEDTAVYYCARGRPAMDYWGQGTLVTVSSGGGGSDIKMTQSPSSMYASLGERVTITCKASQDINSYLSWFHHKPGKSPKTLIYRANRLVDGVPSRFSGSGSGQDYSLTISSLDYEDMGIYYCQQYDESPWTFGGGTKLEMKGSTSGSGKPGSGEGSTKGNIQLVQSGPELKKPGETVKISCKASGYTFTNYGMNWVKQAPGKGLRWMGWINTHTGEPTYADDFKGRFAFSLETSASTAYLQINNLKNEDTATYFCTRRGYDWYFDVWGAGTTVTVSSGGGGSDIQMTQSPSSLSASVGDRVTITCRASESVDNYGISFMNWFQQKPGKAPKLLIYAASNQGSGVPSRFSGSGSGTDFTLTISSLQPDDFATYYCQQSKEVPWTFGQGTKVEIKASTTTPAPRPPTPAPTIASQPLSLRPEACRPAAGGAVHTRGLDFACDIYIWAPLAGTCGVLLLSLVITLYCKRGRKKLLYIFKQPFMRPVQTTQEEDGCSCRFPEEEEGGCELRVKFSRSADAPAYKQGQNQLYNELNLGRREEYDVLDKRRGRDPEMGGKPRRKNPQEGLYNELQKDKMAEAYSEIGMKGERRRGKGHDGLYQGLSTATKDTYDALHMQALPPR
Regarding B5, the “elimination of CCRF-CEM cells” value is roughly 100%.

B6: CD5/CD33 Dual-CAR, construct S037 (other)
chain: NIQLVQSGPELKKPGETVKISCKASGYTFTNYGMNWVKQAPGKGLRWMGWINTHTGEPTYADDFKGRFAFSLETSASTAYLQINNLKNEDTATYFCTRRGYDWYFDVWGAGTTVTVSSGGGGSDIQMTQSPSSLSASVGDRVTITCRASESVDNYGISFMNWFQQKPGKAPKLLIYAASNQGSGVPSRFSGSGSGTDFTLTISSLQPDDFATYYCQQSKEVPWTFGQGTKVEIKGSTSGSGKPGSGEGSTKGQVQLVQSGAEVKKPGSSVKVSCKASGYTFTDYNMHWVRQAPGQGLEWIGYIYPYNGGTGYNQKFKSKATITADESTNTAYMELSSLRSEDTAVYYCARGRPAMDYWGQGTLVTVSSGGGGSDIKMTQSPSSMYASLGERVTITCKASQDINSYLSWFHHKPGKSPKTLIYRANRLVDGVPSRFSGSGSGQDYSLTISSLDYEDMGIYYCQQYDESPWTFGGGTKLEMKASTTTPAPRPPTPAPTIASQPLSLRPEACRPAAGGAVHTRGLDFACDIYIWAPLAGTCGVLLLSLVITLYCKRGRKKLLYIFKQPFMRPVQTTQEEDGCSCRFPEEEEGGCELRVKFSRSADAPAYKQGQNQLYNELNLGRREEYDVLDKRRGRDPEMGGKPRRKNPQEGLYNELQKDKMAEAYSEIGMKGERRRGKGHDGLYQGLSTATKDTYDALHMQALPPR
For B6, the “elimination of CCRF-CEM cells” value is roughly 100%.

B7: CD5/CD33 Dual-CAR, construct S040 (other)
chain: DIQMTQSPSSLSASVGDRVTITCRASQDINSYLSWFQQKPGKAPKTLIYRANRLESGVPSRFSGSGSGTDYTLTISSLQYEDFGIYYCQQYDESPWTFGGGTKLEIKGGGGSQVQLVQSGAEVKKPGSSVKVSCKASGYTFTDYNMHWVRQAPGQGLEWIGYIYPYNGGTGYNQKFKSKATITADESTNTAYMELSSLRSEDTAVYYCARGRPAMDYWGQGTLVTVSSGSTSGSGKPGSGEGSTKGDIQMTQSPSSLSASVGDRVTITCRASESVDNYGISFMNWFQQKPGKAPKLLIYAASNQGSGVPSRFSGSGSGTDFTLTISSLQPDDFATYYCQQSKEVPWTFGQGTKVEIKGGGGSEIQLVQSGGGLVKPGGSVRISCAASGYTFTNYGMNWVRQAPGKGLEWMGWINTHTGEPTYADSFKGRFTFSLDDSKNTAYLQINSLRAEDTAVYFCTRRGYDWYFDVWGQGTTVTVSSASTTTPAPRPPTPAPTIASQPLSLRPEACRPAAGGAVHTRGLDFACDIYIWAPLAGTCGVLLLSLVITLYCKRGRKKLLYIFKQPFMRPVQTTQEEDGCSCRFPEEEEGGCELRVKFSRSADAPAYKQGQNQLYNELNLGRREEYDVLDKRRGRDPEMGGKPRRKNPQEGLYNELQKDKMAEAYSEIGMKGERRRGKGHDGLYQGLSTATKDTYDALHMQALPPR
As to B7, the “elimination of CCRF-CEM cells” value is roughly 100%.
